PMC10397247
One block for each binder: values may come before it.

Tests used:
4H4038-bA = target: T1, 4H4038-bA; assay: two-hybrid library CCNG1;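 also: natural log of median RNA to DNA barcode read ratio; higher means stronger binding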
T1 chain: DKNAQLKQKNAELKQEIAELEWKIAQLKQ

4H3592-bA = target: T2, 4H3592-bA; assay: two-hybrid library CCNG1;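 also: natural log of median RNA to DNA barcode read ratio; higher means stronger binding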
T2 chain: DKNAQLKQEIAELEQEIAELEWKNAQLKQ

4H3907-bA = target: T3, 4H3907-bA; assay: two-hybrid library CCNG1;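 also: natural log of median RNA to DNA barcode read ratio; higher means stronger binding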
T3 chain: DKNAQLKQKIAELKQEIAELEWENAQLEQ

4H1406-bA = target: T4, 4H1406-bA; assay: two-hybrid library CCNG1;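 also: natural log of median RNA to DNA barcode read ratio; higher means stronger binding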
T4 chain: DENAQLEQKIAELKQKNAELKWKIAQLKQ

4H3601-bA = target: T5, 4H3601-bA; assay: two-hybrid library CCNG1;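 also: natural log of median RNA to DNA barcode read ratio; higher means stronger binding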
T5 chain: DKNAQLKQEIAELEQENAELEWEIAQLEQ

4H1387-bA = target: T6, 4H1387-bA; assay: two-hybrid library CCNG1;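 also: natural log of median RNA to DNA barcode read ratio; higher means stronger binding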
T6 chain: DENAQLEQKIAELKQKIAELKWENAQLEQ

P4mS [1] = target: T7, P4mS; assay: two-hybrid library CC1; conditions: mean of both orientations
T7 chain: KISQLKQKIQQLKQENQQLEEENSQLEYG

P7 = target: T8, P7; assay: two-hybrid library CC1; conditions: mean of both orientations
T8 chain: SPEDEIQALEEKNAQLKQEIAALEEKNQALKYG

P9 = target: T9, P9; assay: two-hybrid library CC1; conditions: mean of both orientations
T9 chain: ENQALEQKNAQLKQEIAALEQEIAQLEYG

P3mS [2] = target: T10, P3mS; assay: two-hybrid library CC1; conditions: mean of both orientations
T10 chain: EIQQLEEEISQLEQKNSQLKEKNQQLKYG

P5mS [3] = target: T11, P5mS; assay: two-hybrid library CC1; conditions: mean of both orientations
T11 chain: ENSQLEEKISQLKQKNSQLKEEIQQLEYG

P6mS [4] = target: T12, P6mS; assay: two-hybrid library CC1; conditions: mean of both orientations
T12 chain: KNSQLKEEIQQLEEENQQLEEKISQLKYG

P12 = target: T13, P12; assay: two-hybrid library CC1
T13 chain: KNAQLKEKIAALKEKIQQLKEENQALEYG

P6SC1 = target: T14, P6SC1; assay: two-hybrid library CC1; conditions: mean of both orientations
T14 chain: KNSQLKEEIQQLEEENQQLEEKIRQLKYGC

P8mS [5] = target: T15, P8mS; assay: two-hybrid library CC1; conditions: mean of both orientations
T15 chain: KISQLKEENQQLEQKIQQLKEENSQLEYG

P6SC2 = target: T16, P6SC2; assay: two-hybrid library CC1; conditions: mean of both orientations
T16 chain: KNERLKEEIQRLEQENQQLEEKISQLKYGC

P5 = target: T17, P5; assay: two-hybrid library CC1; conditions: mean of both orientations
T17 chain: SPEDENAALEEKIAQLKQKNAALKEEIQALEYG

P5SC1 = target: T18, P5SC1; assay: two-hybrid library CC1; conditions: mean of both orientations
T18 chain: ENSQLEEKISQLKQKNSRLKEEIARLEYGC

P7mS [6] = target: T19, P7mS; assay: two-hybrid library CC1; conditions: mean of both orientations
T19 chain: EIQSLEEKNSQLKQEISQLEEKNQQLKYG

P8 = target: T20, P8; assay: two-hybrid library CC1; conditions: mean of both orientations
T20 chain: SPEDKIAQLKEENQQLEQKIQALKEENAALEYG

P5SC2 = target: T21, P5SC2; assay: two-hybrid library CC1; conditions: mean of both orientations
T21 chain: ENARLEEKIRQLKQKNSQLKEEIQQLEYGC

P4 = target: T22, P4; assay: two-hybrid library CC1; conditions: mean of both orientations
T22 chain: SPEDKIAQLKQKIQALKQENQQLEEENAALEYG

P6 = target: T23, P6; assay: two-hybrid library CC1; conditions: mean of both orientations
T23 chain: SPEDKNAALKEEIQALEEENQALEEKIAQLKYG

P3 = target: T24, P3; assay: two-hybrid library CC1; conditions: mean of both orientations
T24 chain: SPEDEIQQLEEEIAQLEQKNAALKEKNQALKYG

P8mS [7] = target: T25, P8mS; assay: two-hybrid library CCNG1
T25 chain: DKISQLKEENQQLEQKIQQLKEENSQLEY

P12mS = target: T26, P12mS; assay: two-hybrid library CCNG1
T26 chain: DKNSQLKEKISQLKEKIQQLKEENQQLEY

P3mS [8] = target: T27, P3mS; assay: two-hybrid library CCNG1
T27 chain: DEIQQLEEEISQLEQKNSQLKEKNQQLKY

P5mS [9] = target: T28, P5mS; assay: two-hybrid library CCNG1
T28 chain: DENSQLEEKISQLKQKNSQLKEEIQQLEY

P7mS [10] = target: T29, P7mS; assay: two-hybrid library CCNG1
T29 chain: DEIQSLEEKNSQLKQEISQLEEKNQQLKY

P6mS [11] = target: T30, P6mS; assay: two-hybrid library CCNG1
T30 chain: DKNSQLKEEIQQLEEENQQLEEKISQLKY

P4mS [12] = target: T31, P4mS; assay: two-hybrid library CCNG1
T31 chain: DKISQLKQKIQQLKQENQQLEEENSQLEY

P9mS = target: T32, P9mS; assay: two-hybrid library CCNG1
T32 chain: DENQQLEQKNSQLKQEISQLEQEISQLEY

interaction score (4H4038-bA): 0.838 | interaction score (4H3592-bA): 2.02 | interaction score (4H3907-bA): 1.32 | interaction score (4H1406-bA): -1.1 | interaction score (4H3601-bA): -0.539 | interaction score (4H1387-bA): -0.828
Binder: DENAQLEQKIAELKQKIAELKWENAQLEQ [4H1387-bA]

Binder: KNAQLKEKIAALKEKIQQLKEENQALEYG [P12]
interaction score (P4mS [1]): -2.91 | interaction score (P7): -2.41 | interaction score (P9): -1.37 | interaction score (P3mS [2]): -0.884 | interaction score (P5mS [3]): -2.78 | interaction score (P6mS [4]): -2.73 | interaction score (P12): -2.73 | interaction score (P6SC1): -2.44 | interaction score (P8mS [5]): -2.85 | interaction score (P6SC2): -2.47 | interaction score (P5): -2.87 | interaction score (P5SC1): -2.96 | interaction score (P7mS [6]): -2.85 | interaction score (P8): -2.9 | interaction score (P5SC2): -2.9 | interaction score (P4): -2.97 | interaction score (P6): -2.42 | interaction score (P3): 0.183

interaction score (P8mS [7]): -0.844 | interaction score (P12mS): -1.27 | interaction score (P3mS [8]): 0.362 | interaction score (P5mS [9]): -1.57 | interaction score (P7mS [10]): -0.947 | interaction score (P6mS [11]): -0.944 | interaction score (P4mS [12]): -0.954 | interaction score (P9mS): -0.472
Binder: DKNSQLKEKISQLKEKIQQLKEENQQLEY [P12mS]
